Test results from PMC7822876, “Structural basis of ribosomal RNA transcription regulation” (Nature Communications, 2020).
Residue numbers refer to the chain shown, from its start. Numbers in names are those of the source.

B1: DksA (natural protein, E. coli)
chain: MQEGQNRKTSSLSILAIAGVEPYQEKPGEEYMNEAQLAHFRRILEAWRNQLRDEVDRTVTHMQDEAANFPDPVDRAAQEEEFSLELRNRDRERKLIKKIEKTLKKVEDEDFGYCESCGVEIGIRRLEARPTADLCIDCKTLAEIREKQMAG
notes: DksA used for cryo-EM, with ppGpp (2 mM) in the sample; also called global transcriptional regulator DksA
B2: DksA D137A (natural protein)
chain: B1 chain with D137A

Assays:
[1] = target: T1, RNA polymerase β' subunit (E. coli, UniProt P0A8T7 1-1407); test: cryo-EM structure; RP-DksA/ppGpp: RNAP (20 μM) preincubated with DksA (100 μM) and ppGpp (2 mM) 5 min at 37 °C in 10 mM HEPES pH 8.0, 50 mM NaCl, 0.1 mM EDTA, 5 mM DTT, 5 mM MgCl2, then rrnBP1 DNA (40 μM) 5 min at 37 °C; 8 mM CHAPSO; two classes, RP1-DksA/ppGpp (3.62 Å) and RP2-DksA/ppGpp (3.58 Å); details: both partners purified
T1 construct: RNA polymerase β' subunit, E. coli; As it stands in the holoenzyme m1; also called β’clamp; β’clamp-toe (β’CT)

RNA polymerase β subunit = target: T2, RNA polymerase β subunit (E. coli, UniProt P0A8V2 1-1342); test: as above; details: both partners purified
T2 construct: RNA polymerase β subunit, E. coli; As it stands in the holoenzyme m1; also called βlobe/Si1; βgate loop (βGL)

[2] = target: Δσ1.1-RNAP (wild-type core RNAP with σ^70 lacking region 1.1) (E. coli) (UniProt P0A7Z4)
[3] = target: β′D256A RNAP (core RNAP with β′ D256A and wild-type σ^70) (E. coli) (UniProt P0A7Z4)
[4] = target: ΔσAL RNAP (wild-type core RNAP with σ^70 lacking the acidic loop) (E. coli) (UniProt P0A7Z4)
[5] = target: wild-type RNAP (core RNAP with wild-type σ^70, for in vitro transcription) (E. coli) (UniProt P0A7Z4)

Row | Binder | binding result [1] | binding result (RNA polymerase β subunit) | K (d,app) of DksA from inhibition of in vitro transcription from rrnBP1 (DksA 10 nM to 10 μM), −ppGpp [2] [µM] | K (d,app) of DksA from inhibition of in vitro transcription from rrnBP1 (DksA 10 nM to 10 μM), +ppGpp (100 μM) [3] [nM] | K (d,app) of DksA from inhibition of in vitro transcription from rrnBP1 (DksA 10 nM to 10 μM), −ppGpp [3] [µM] | K (d,app) of DksA from inhibition of in vitro transcription from rrnBP1 (DksA 10 nM to 10 μM), +ppGpp (100 μM) [4] [nM] | K (d,app) of DksA from inhibition of in vitro transcription from rrnBP1 (DksA 10 nM to 10 μM), −ppGpp [4] [nM] | K (d,app) of DksA from inhibition of in vitro transcription from rrnBP1 (DksA 10 nM to 10 μM), +ppGpp (100 μM) [5] [nM] | K (d,app) of DksA from inhibition of in vitro transcription from rrnBP1 (DksA 10 nM to 10 μM), −ppGpp [5] [nM] | K (d,app) of DksA D137A from inhibition of in vitro transcription from rrnBP1 (DksA 10 nM to 10 μM), +ppGpp (100 μM) [5] [nM] | K (d,app) of DksA D137A from inhibition of in vitro transcription from rrnBP1 (DksA 10 nM to 10 μM), −ppGpp [5] [µM]
1 | B1 | binds | binds | > 10 | 1640 | 4.54 | 1150 | 3000 | 860 | 2200 | – | –
2 | B2 | – | – | – | – | – | – | – | – | – | 2440 | 3.9
